Laboratory results as given in patent US20100129369A1 (Eli Lilly, published 2010).

Key:
PlexinA2-ECD-Fc [1] = target: T1, PlexinA2-ECD-Fc (human, UniProt O75051 35-1237); test: ELISA, coated ECD-Fc, antibody 0.060 ng/mL
T1 construct: extracellular domain; Bought reagent
T1 sequence (looked up): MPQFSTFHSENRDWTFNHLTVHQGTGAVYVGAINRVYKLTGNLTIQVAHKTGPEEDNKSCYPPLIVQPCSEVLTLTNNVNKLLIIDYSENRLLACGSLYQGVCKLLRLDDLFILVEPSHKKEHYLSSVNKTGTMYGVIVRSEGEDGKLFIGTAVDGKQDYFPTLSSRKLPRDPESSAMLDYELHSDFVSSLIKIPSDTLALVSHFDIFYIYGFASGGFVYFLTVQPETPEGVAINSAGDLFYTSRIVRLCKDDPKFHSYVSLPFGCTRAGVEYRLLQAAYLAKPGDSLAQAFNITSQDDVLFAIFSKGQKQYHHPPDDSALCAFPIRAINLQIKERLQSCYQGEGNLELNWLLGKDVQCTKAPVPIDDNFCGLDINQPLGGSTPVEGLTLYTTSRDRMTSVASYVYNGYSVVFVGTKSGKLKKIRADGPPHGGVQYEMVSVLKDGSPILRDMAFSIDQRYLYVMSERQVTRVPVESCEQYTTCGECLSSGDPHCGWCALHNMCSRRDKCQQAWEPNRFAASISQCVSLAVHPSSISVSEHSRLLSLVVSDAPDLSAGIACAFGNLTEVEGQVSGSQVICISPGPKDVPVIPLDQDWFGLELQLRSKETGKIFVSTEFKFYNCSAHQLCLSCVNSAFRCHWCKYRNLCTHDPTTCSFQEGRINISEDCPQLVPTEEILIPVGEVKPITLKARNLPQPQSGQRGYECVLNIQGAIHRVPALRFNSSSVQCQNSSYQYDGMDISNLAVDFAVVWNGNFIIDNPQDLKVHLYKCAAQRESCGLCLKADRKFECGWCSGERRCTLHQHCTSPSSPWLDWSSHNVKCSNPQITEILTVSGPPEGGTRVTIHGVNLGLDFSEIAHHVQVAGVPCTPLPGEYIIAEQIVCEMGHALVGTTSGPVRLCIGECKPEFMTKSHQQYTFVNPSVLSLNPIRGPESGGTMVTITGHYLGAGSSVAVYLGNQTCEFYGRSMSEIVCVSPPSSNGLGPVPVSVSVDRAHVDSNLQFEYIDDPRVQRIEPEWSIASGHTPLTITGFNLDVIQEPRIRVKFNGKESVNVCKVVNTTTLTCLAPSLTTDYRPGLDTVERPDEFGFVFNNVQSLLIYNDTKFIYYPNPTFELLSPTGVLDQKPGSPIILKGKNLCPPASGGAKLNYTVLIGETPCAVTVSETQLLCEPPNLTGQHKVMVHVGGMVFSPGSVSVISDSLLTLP

RON-ECD-Fc [2] = target: T2, RON-ECD-Fc (human, UniProt Q04912 25-957); test: ELISA, coated ECD-Fc, antibody 2.143 ng/mL
T2 construct: extracellular domain; Bought reagent; not shown: Fc part of the bought fusion
T2 sequence (looked up): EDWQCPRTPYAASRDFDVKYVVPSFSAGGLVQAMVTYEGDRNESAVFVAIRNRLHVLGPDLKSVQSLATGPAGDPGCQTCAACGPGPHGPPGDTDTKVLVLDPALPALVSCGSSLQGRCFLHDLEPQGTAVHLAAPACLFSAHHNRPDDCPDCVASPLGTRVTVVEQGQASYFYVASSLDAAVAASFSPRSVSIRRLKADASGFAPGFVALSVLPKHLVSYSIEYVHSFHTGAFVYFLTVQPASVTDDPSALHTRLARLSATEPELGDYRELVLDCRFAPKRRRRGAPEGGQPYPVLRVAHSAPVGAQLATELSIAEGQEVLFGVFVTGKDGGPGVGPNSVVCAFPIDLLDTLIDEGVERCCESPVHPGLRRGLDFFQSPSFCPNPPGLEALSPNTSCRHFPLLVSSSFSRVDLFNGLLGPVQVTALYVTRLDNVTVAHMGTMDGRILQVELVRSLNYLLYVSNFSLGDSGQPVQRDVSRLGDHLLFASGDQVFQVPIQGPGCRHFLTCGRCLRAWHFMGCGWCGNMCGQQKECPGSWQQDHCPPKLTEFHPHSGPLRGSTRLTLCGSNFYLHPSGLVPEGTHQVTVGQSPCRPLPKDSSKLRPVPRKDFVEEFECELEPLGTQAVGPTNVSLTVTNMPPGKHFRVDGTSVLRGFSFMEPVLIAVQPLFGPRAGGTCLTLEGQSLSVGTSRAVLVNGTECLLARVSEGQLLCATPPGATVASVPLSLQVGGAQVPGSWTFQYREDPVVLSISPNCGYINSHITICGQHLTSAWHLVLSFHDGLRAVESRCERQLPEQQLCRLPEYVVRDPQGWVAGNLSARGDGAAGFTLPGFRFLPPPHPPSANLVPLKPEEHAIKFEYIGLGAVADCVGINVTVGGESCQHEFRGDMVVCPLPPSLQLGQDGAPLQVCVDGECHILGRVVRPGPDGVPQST
Protocol: (§1) Wells of 96-well EIA/RIA high binding plates (Costar, #2592) are coated with 100 μL of 1 μg/mL human c-Met extracellular domain (ECD)-Fc-Flis fusion (SEQ ID NO:72), RON-ECD-Fc (R&D Systems, #1947-MS), or PlexinA2-ECD-Fc (Abnova, Taipei, Taiwan #H00005362-P01) in coating buffer (BioFX Labs, # COAT-1000-01) overnight at 4° C. […] After the plates are washed, 100 μL/well of substrate solution (BioFx, #TMBW-1000-01) are added and the plates are incubated for 10 min. at room temperature. 100 μL/well of stop solution (BioFx, # LSTP-1000-01) are added to stop the reaction. The colorimetric signals are developed and read at 450 nm using a SpectraMax 190 plate reader (Molecular Devices, Sunnyvale, Calif.). c-Met antibody binding to c-Met, RON and PlexinA2 ECDs is proportional to color signal production.

PlexinA2-ECD-Fc [3] = target: T1, PlexinA2-ECD-Fc; test: ELISA, coated ECD-Fc, antibody 2.143 ng/mL
Protocol: as §1

Human c-Met-Flis-Fc ECD [4] = target: T3, Human c-Met-Flis-Fc ECD (human); test: ELISA, coated ECD-Fc, antibody 2.143 ng/mL
T3 construct: also called human c-Met extracellular domain (ECD)-Fc-Flis fusion; Human cMet-ECD-Fc-Flis
T3 sequence (chain, as listed by the source limits assumed): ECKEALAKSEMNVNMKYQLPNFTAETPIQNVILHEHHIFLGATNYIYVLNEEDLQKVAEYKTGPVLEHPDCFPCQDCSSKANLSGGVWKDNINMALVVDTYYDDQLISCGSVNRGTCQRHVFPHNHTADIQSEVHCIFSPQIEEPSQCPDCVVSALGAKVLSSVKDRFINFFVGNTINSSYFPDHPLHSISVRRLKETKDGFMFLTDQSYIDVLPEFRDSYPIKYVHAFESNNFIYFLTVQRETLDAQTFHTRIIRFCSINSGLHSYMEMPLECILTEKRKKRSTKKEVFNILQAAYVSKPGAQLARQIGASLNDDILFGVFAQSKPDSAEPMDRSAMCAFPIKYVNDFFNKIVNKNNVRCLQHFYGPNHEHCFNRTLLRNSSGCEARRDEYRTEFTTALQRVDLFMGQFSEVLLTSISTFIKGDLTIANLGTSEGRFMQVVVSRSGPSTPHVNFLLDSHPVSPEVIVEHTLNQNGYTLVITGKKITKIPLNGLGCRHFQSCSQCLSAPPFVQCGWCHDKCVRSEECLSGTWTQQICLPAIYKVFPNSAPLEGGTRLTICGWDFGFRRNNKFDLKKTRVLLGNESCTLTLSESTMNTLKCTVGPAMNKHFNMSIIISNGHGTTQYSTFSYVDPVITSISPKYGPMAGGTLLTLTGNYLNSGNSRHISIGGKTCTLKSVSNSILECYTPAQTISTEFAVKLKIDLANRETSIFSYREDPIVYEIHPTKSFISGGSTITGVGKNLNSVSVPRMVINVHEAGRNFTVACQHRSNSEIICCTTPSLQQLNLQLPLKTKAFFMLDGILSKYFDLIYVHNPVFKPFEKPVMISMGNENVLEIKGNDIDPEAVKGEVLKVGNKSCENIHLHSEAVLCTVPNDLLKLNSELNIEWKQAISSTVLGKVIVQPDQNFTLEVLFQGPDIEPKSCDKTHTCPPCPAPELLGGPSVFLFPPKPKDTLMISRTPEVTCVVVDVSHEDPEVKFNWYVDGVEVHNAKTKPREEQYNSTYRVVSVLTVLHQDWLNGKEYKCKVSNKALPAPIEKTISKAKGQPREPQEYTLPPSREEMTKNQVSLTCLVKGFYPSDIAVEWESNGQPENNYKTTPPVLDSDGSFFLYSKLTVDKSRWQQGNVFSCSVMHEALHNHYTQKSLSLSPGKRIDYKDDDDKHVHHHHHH
Protocol: as §1

RON-ECD-Fc [5] = target: T2, RON-ECD-Fc; test: ELISA, coated ECD-Fc, antibody 16666.667 ng/mL
Protocol: as §1

PlexinA2-ECD-Fc [6] = target: T1, PlexinA2-ECD-Fc; test: ELISA, coated ECD-Fc, antibody 16666.667 ng/mL
Protocol: as §1

Human c-Met-Flis-Fc ECD [7] = target: T3, Human c-Met-Flis-Fc ECD; test: ELISA, coated ECD-Fc, antibody 16666.667 ng/mL
Protocol: as §1

- Average A450 nm (PlexinA2-ECD-Fc [1]): 0.096 A450 nm
- Average A450 nm (RON-ECD-Fc [2]): 0.098 A450 nm
- Average A450 nm (PlexinA2-ECD-Fc [3]): 0.106 A450 nm
- Average A450 nm (Human c-Met-Flis-Fc ECD [4]): 2.42 A450 nm
- Average A450 nm (RON-ECD-Fc [5]): 0.124 A450 nm
- Average A450 nm (PlexinA2-ECD-Fc [6]): 0.118 A450 nm
- Average A450 nm (Human c-Met-Flis-Fc ECD [7]): 4 A450 nm
B1: C8-6 (antibody, human IgG2, kappa, V domains shown)
VH: QVQLVQSGAEVKKPGASVKVSCKASGYTFTDYYMHWVRQAPGQGLEWMGRVNPNRGGTTYNQKFEGRVTMTTDTSTSTAYMELRSLRSDDTAVYYCARTNWLDYWGQGTTVTVSS
VL: DIQMTQSPSSLSASVGDRVTITCSVSSSVSSIYLHWYQQKPGKAPKLLIYSTSNLASGVPSRFSGSGSGTDFTLTISSLQPEDFATYYCIQYSGYPLTFGGGTKVEIKR
notes: Called IgG4, kappa; also called Mab C8-6
